Source: the DeepSol protein solubility set

Test: soluble on expression in E. coli; label from the status in PepcDB or PDB records

Sequence	soluble on expression in E. coli
MITMKISSRFSIAVHILSILKNNPSSLCTSDYMAESVNTNPVVIRKIMSYLKQAGFVYVNRGPGGAGLLKDLHEITLLDVYHAVNVVEEDKLFHIHEQPNPDCPIGANIQAVLEIILIQAQSAMEEVLRNITMGQLFETLQEKMNA	soluble
DTDGLWAALTEAAASVEKLLATLPEHGARSSAERAEIAAAHDAARALRVRFLDTHADAVYDRLTDHRRVHLRLAELVEAAATAFPGLVPTQQQLAVERSLPQAAKEGHEIDQGIFLRAVLRSPLAGPHLLDAMLRPTPRALELLPEFVRTGEVEMEAVHLERRDGVARLTMCRDDRLNAEDGQQVDDMETAVDLALLDPGVRVGLLRGGVMSHPRYRGKRVFSAGINLKYLSQGGISLVDFLMRKELGYIHKLVRGVLTNDDRPGWWHSPRIEKPWVAAVDGFAIGGGAQLLLVFDRVLASSDAYFSLPAAKEGIIPGAANLRLGRFAGPRVSRQVILEGRRIWAKEPEARLLVDEVVEPDELDAAIERSLTRLDGDAVLANRRMLNLADESPDGFRAYMAEFALMQALRLYGHDVI	soluble
RTVAQNASETTVSYDTDTAVLSEADVLRIALSENATVKVADMDVRKQEYARRAARADLFPKVDLNGVYSHTLKKQVLYIDMPGFSSSEGIEMGRTHNTQGGVNVSMPLVSAQLWKSIAMTGEQLDLALEKARSSRIDLVAEVKKAYLSVLLAEDSYGVFKRSYDNALANYKNISDKFDRGLVAEYDKIRANVQVRNIEPNLLQAQNSVALALWQLKVLMSMEVETPIRLSGSLSDYKEQVYTGYFAADTLISNNSSLRQLDIQRRLAVSADKLNKYSFLPTLNLGGQYTYSLNSNDIKFWGEGQR	not soluble
MRLDYWSDSSKPIQQQWRDYDEISDNFKKAVVAAEDGKFVHHHGFDWEGIQYALEKNEKSGEVVNGGSTISQQLAKNLFLYNQRSLIRKGQEAIATWMMERMWSKQRILEVYMNSVQFGDHLYGVEAASHYYFHRSAQNLTRDQAAFLAALLPNPKYYQENRNDPRFKFKKRFTLKYMRYSEIP	not soluble
MSLKVFYMNVVIITGAASGIGHALSQVCLSNGKTIVMVDKNQDKLHTEAQSFMTKFSPEHVICFACDVTQPSEVERLAEYSCKQLGQVDWIFNNAGIIGNLLPAWELQENDINQVMQVNLHGMLNIIRSFMPYLFKQNFRSHIINMASLYALCTGSQMAAYSMSKHAVLALSESLYFDLNRLKKPVDVSVVFPSFTDTSLLASSGKLNHSPIHNQLNNLLAHSRPAIEVAEHIVREVEQKRFYILPDKEVKGYCEDRTKAILLQENPHRNSVEQLMCSLLKRQSSEANEGHHHHHH	soluble
AIAGGAVSAGQDNDELIDNLKEAQYIRTEAVEKAFRAIDRADYYLEEFKQNAYRDLAWKHGNIHLSAPCIYSEVMEALDLQPGLSFLNLGSGTGYLNTMAGLILGPFGINHGVEIHADVIEYAKEKLDLFVHTSDSFDRFDFCEPSFVAGNCLDIALDCMYDRVYCGAGVQKEHKEYMKNLIKVGGILVLPLEEKLTKITRTGPSSWETKKILAVSFAPLIQPDHVESAKSKSLQLPLPNIRSLQDLSRITIRRHIKKIVNQVPNGRGDGVMKNPPRYKRKRLRRRPLQTVVYLEEGGFACRIQNSFDDNNNCEGAGNCEGAGDDLAEKEEQGVSETKPNPPVNFLREKILCLPLPVPLKYYLLYYREK	soluble
MGSDKIHHHHHHMPEPRRSTIDAGEVERFSALAAEWWNPNGKFRPLHKFNPVRLSYIRDQIAARFGRDPRAARPFEGLRILDIGCGGGLLCEPMARLGAEVVGADASETNIEVAKLHAAEGNVIVDYRATTAEDLADAGETFDVILNMEVVEHVADIDLFVAKCGQMVRPGGIMFVATINRTLKALGLAIIGAEYVLRWLPRGTHQFGKLVRPEELEKALGGASLTIIDRTGVTYNPLADRWARSKDMDVNYMVLAEKGSV	not soluble
MSLQESSFVHLHNHTQFSVLQSTMAVPDLVAAAAKHNMPAVAITDHANMMGAFHFVNAVKKHNSAIANDSENTSQPIKPIIGCEFFVCEDHTDRTHKDNGYQMVILAKNKKGYHNLAKMSSMGFTKGFYYIPRIDKKLIETYKDDLIVLSGSLYGEIASKLLNLGENQAEESLVWWKETFGDDFYVEIMRHQQEDEERANEALIRLANKHDINLVATNNTYYADQKDANAHDILLCVKEGEKQATPIGRGRGYRYGLPNDQYYFKSAEEMKSLFKDLPQAISNTEAIANKVEAFELAREVLLPAFVIPEQFLDEADKTDAGKRGENAYLKHLTFEGAKRRYGELSEEIKDRLDFELSVIANTGYPGYFLIVEDFIREARKMGVSVGPGRGSAAGSAVAYCLKITNIDPIKYDLLFERFLNPERVSMPDIDIDFDDEGRSKVMDYVIEKYGQNQVAQIITYGTMAAKSAIRDTARVLDLPLYEADRIAKLIPDMSKLGKIFSMNEKEEGHHHHHH	soluble
MSDELSVKRHKSDPDESIEEIMPEIRPPLTRTHKIVRDESGKHNLLLILTGSIAVMKAPELISELYEKIGRDRILIKVVTTENAMKLCHIQKLEFDEIVYEDRDEWSMWRERGDKVLHIELRKWADSALIAPLDANTMAKIANGLCDNLVTSIIRAWDLSKPCYFAPAMNTHMWENPLTMQHRTVLKSQLKFKEICPIQKELICGDVGTGAMASIGTIVSLVAALVRDQQAVRIQCG	not soluble
MVKDCSYSILLPTYNERENLPYILYFIEEVFESMGERYEVIVVDDNSPDGTLEVAKKLQQVFGSDKVVLAPRAGKLGLGSAYSHGLQFAKGNFIIIMDADLSHHPKYIADFVRKQREGSFDVVTGTRYRGEGGVFGWNWRRKLTSVGANLLAQLLLNPGVSDLTGSFRLYRRQAFEQLIHRTRSKGYVFQMEIIVLAKKLGLRVGEVPIVFIDRLYGESKLGGREVIQYLSGLLCLMFQK	soluble
MSLNEKEINYEEVMAKIDPENGIQVEIPRGANTDDIANILREHGVIKYPFWFKFVSKFNGYDGRYKSGKHIVNKDLKYKEIMEILCSNPVTTTVTIIEGKNTDQIADILSEKKVIDKEAFLEACNTEKFDYEFLKDIPENPQRENKLEGYLFPDTYFFDPKAGERAIIEKFLDNFDAKFKPEFYERAKELNMTVDEVIILASIIERETALPEERPIVSSVFHNRLKSSDPNLKKLESCATVQYVLYKTQGKMKEKLSDEDTKIDHPYNTYLYEGLPPGPICCPGLASIEAALYPDEESEYLYFVAKGDGSHEFSRTLAEHLEAVKKYQSNEGHHHHHH	soluble
MNLPPDALHENVYAFALARDQVESYCNQCLTSMAELKKCSACRRLAYCSQECQRADWKLHKVECKAIKTHNEVANDSIRLVMRIAGKLSRNEDGEIEAYYIPGVARNFQNLEHHPSSYDADEESFVKEYFQFAIAPHPDRDLIKLIFQKVSINSFVVGNSTGNPIGVGLCIKLSAANHSCKPLTRVCYRNRTAMLVPVSSELPSTLEGACHSYIDELMPRDMRRDTLKKKYKFLCQCDGCLDEDRNARMEAWTCGICVKGWMRNKENGQCELCGWTMSKDHFELCRTAEEAGIAARSRLANDAIPLETKRNLCEKLLDLFQDTLHDHNVHRIPVLRCLYICSLAAQNITAAAKTGGTLLSIMLVYQNTTDPAILFQKYQLAQLFCAAGAKTQATKLLQEIEEPLEKIYTPDSMICRNVYCMILKARNLS	not soluble
KLAYKLGIGLECPFDKIWSLQTGVSFVSKGTNHTIVETDGISAQAKVNASYLEFPVMVAARFAMDRNTYILVAAGPYGAWGIGGKTKALGYSWSSSSTPDWNTGNVVEINTFGKDGLDLRRFDYGVAIGLSVEYRHYVIGVEGRLGLCKLQKELQGKNITGFVTAGYKF	not soluble
LLNQGGEKLLDYYFTKTNYMERENARRYNDLRDYVKKNKLSTEDTDRLAEWVRRQEVVWMQMYRDHILLYDSQFPYMKANPEYHVTGQFYEWNGYEMIDFQDGEALVFLTGMYTYQFFNY	not soluble
MGSDKIHHHHHHMFFEIALIGTTASGKTYIANTLAREFNAVVLSLDSLCVYKEINIASAKPSQDDLASIKYFGVNLLSVNEHFNVELFIREYQKAKEFALARNLPLIIVGGTGFYLKTMIDGLSEKTLESKSSLNNDEIYALLLNIDPNYKIEKNDTYRLKKWLGIYEQTREIPSEFLKRTQKTGVLKDIEIYELAWDKEILKKRIKTRTKEMLDNGLLDEAKILFSKFDHKLKALNSIGLKECKEYLDGEISFKELENLITIHTTQLAKRQRTFNKKFQSKALEFDKALATLRMKFSIEK	not soluble
MNKKLMTLAVFLFSSAASAASTDATVNLVNANGTGQKIGNITITETEYGLLFTPHLSSLPAGIHGFHIHENGSCDAGMKDGKPVAALAAGGHLDPQHTNKHLGPYNPEGHLGDLPALYVNQAGNADYPVLAPRLKSISQVKGHAIMIHTGGDNHEDHPNPLGGGGARIACGVIK	not soluble
MGSDKIHHHHHHMGGLGARHLYGSALGEHLVFKGGTSLSKAYQVIQRFSEDVDLTYDIRAIAPDLVGDDGEALPETRSEEKRWSSEVRKRLPNWVEGSVQPIIADALAAEALAAAIRVEGEKLFIDYAAATAGSGYVAPSVILEFGARSTGEPASLRDIACDASGLIEGVTFPTARPRVMHAERTFWEKATAIHVFCLQERLRGDRFARHWHDVARLDETGFTPSAFADRDLANAVARHKTMFFAEKAPDRTPIDYAAAVNGGLRLVPAGDGLKALEEDYARMVDDGLLLEDAEPFEALMARCADIAERANYIRE	not soluble
MASKSRILQLKGTGLKKVPDEIEPLADVLRNLELSENKIREIPIFIGQFSQLKQLHLANNCLEFLPDELGSMKKLEILNLAGNKLKALPDTIVGCTDLKTIDLSSNVFTVFPVAVIGCLQLDILNLNGNQIESLPDDISNLKVIELSLNQNRLSSLNPSNLAKTTRLRTLRLDENCLEKSEFTRDLLESSTISVMSYDGNRFQLKDFQDLPGYDAYQERFTATKRKI	not soluble
MPSLAELTKSLSIAFENGDYAACEKLLPPIKIELIKNNLLIPDLSIQNDIYLNDLMITKRILEVGALASIQTFNFDSFENYFNQLKPYYFSNNHKLSESDKKSKLISLYLLNLLSQNNTTKFHSELQYLDKHIKNLEDDSLLSYPIKLDRWLMEGSYQKAWDLLQSGSQNISEFDSFTDILKSAIRDEIAKNTELSYDFLPLSNIKALLFFNNEKETEKFALERNWPIVNSKVYFNNQSKEKADYEDEMMHEEDQKTNIIEKAMDYAISIENIV	soluble
MTHLLETKNLSVSFGEHHVIKDVNLIVQKGKLISIIGPNGAGKTTLFNLLSGQISPTKGEVYFKGQEITKLSISDRTRLGIGRSFQLTNIFPELTVLENVRLSVQSFVQDYYSFFPSSAKFKQQVGEARRFLKTVLLQEKEHVLAKDLAHGEKRKLELAMLLALKTDVLLLDEPTAGISVEEVPAILQVIENIKKHPESTIVLIEHKMDMVLGLSDHLIVLFHGELLAEGMPEEIMKDERVQSAYLGGLYSGTITSE	not soluble
MRFVFDIDGTLCFDGRLIDQTIIDTLLQLQHDGHELIFASARPIRDLLPVLPSVFHQHTLIGANGAMISQQSKISVIKPIHTDTYHHILKIIQKYELDYIIDDDWNYAAQLDAENAIFERLDPHKLASCIDVANIDTPIKIILLNIDPAQITTILDELNKYHQELEMIHHSNEYNIDITAQNINKYTALQYIFDADVKYIAFGNDHNDIFMLQHASSGYIIGPSEAYTHAILKLDKIKHINNNTQAICKVLKSYK	not soluble
MRRFQRSTVIDAPRELVWAFHEQADVLEQLTPPWLPVEVVRREGGLGPGAVSEFRLWLGPVPIRWVATHNDDYEPGRCFCDRQSQGPFADWLHRHIFSREGDRTRLIDEVEYALPGGWLPELSVGPVVDAQLERLFAYRQQVTKQWCESRRDAFLQSNRTTKGLQSLLEHHHHHH	soluble
